Data on two molecules can be found in patent CN116981688A (HELMHOLTZ ZENTRUM MUENCHEN DEUTSCHES FORSCHUNGSZENTRUM FUR …, dated 2023).

For assay [1], the target named is T1, 人PRDX4 (存在于癌细胞的细胞表面上) (human) (UniProt Q13162).
T1 sequence: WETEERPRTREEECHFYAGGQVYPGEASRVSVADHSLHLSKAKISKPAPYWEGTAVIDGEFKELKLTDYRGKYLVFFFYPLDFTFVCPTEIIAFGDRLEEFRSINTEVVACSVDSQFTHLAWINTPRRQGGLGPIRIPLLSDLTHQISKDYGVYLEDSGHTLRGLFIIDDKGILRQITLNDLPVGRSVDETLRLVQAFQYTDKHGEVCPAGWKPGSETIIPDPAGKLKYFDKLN
As to the kind of experiment: flow cytometry on ES-2 cells, isotype control. For orientation: In flow cytometry, cells or beads pass a laser one at a time.

In assay [2] the target is T1, 人PRDX4 (存在于癌细胞的细胞表面上) (human). As to the kind of experiment: flow cytometry on ES-2w cells transfected with control siRNA.
Assay [3] has the same target. As to the kind of experiment: flow cytometry on ES-2 cells with PRDX4-specific siRNA (4BC_KO) against control siRNA cells.
Assay [4] has the same target. As to the kind of experiment: flow cytometry on ES-2 cells transfected with PRDX4-specific siRNA (population 4BC_KO).
Another assay addresses T2, PRDX4 (内源性, 细胞裂解物中) (human, UniProt Q13162 38-271).
T2 construct: Endogenous PRDX4 in RIPA lysates of human cell lines (ES-2 and others), precipitated with 11F2 beads; also called 内源性PRDX4
T2 sequence: T1 sequence
Kind of assay: immunoprecipitation with 11F2 beads from ES-2 lysate, western blot.

On to 同种型抗体 (antibody), for which the 平均值 (mean fluorescence) in assay [1] stood at 159.

B1: 抗体11F2 (antibody, V domains shown)
VH: QVQLQQSGAELVKPGTSVKLSCKASGYTFSTHHMHWIKETTGQGLEWIGIINPGNGGTKYNVKFKGKATLTVDSSSSTAFMQLGSLTPEDSAVYYCARGNPASFDYWGQGVMVTVSS
VL: DIQMTQSPSFLSASVGDRVTINCKASQNIYKYLNWYQQKLGEAPKRLIYNTNNLETDIPSRFSGSGSGTDYTFTISSLQPEDFATYFCLQHSNFPFTFGSGTKLEIKR
notes: Monoclonal antibody detected with goat anti-rat IgG secondary antibody, so rat constant regions; also called PRDX4特异性抗体11F2; PRDX4抗体11F2
In the case of B1, the 平均值 (mean fluorescence) in assay [2] is 1910; in assay [4] it was 874. In assay [3], this molecule yielded a percent of 11F2 binding against control siRNA cells of 50%. The binding result with PRDX4 (内源性, 细胞裂解物中) is recorded as “binds”.
